# In US20220307159:
# How the values were obtained:
# [1] = molecular target: eIF3 complex (detected via eIF3b) (Homo sapiens) (UniProt Q14152+P55884+Q99613+O15371+P60228+O00303+O75821+O15372+Q13347+O75822+Q9UBQ5+Q9Y262+Q7L2H7); assay: pulldown; details: RIP-chip co-IP with anti-eIF3b, 4 C
# [2] = molecular target: T1, LIN28A (UniProt Q9H9Z2); assay: pulldown; details: RIP-chip microarray, TALON beads, 4 C
# T1 sequence: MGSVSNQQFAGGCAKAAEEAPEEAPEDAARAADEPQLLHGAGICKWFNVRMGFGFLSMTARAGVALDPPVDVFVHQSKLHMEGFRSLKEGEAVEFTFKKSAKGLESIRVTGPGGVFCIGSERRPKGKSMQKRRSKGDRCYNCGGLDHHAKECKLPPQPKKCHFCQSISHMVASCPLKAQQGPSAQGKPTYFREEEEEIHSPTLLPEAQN
substance,measurement,setting,value
HIV_2014_Siegfried_nucs_1_753_9 (HIV-1 gag IRES),binding signal (top % (rank 17)),[1],0.2
hsa-mir-532,binding signal (Cy5 intensity (rank 10)),[2],7.39
HIV_2014_Siegfried_nucs_1_753_2_Multi (HIV-1 gag IRES),binding signal (top % (rank 568)),[1],6.58
pre-hsa-mir-940,binding signal (Cy5 intensity (rank 6)),[2],7.5
